Patent US20090202549A1

Biological target: mouse IL-12 (p40/p35 heterodimer) (mouse) (UniProt P43432)
Experiment: cell-based or functional assay

Sequence of mouse IL-12 (p40/p35 heterodimer) (mouse) (P43432 23-335, chain 1 of 2): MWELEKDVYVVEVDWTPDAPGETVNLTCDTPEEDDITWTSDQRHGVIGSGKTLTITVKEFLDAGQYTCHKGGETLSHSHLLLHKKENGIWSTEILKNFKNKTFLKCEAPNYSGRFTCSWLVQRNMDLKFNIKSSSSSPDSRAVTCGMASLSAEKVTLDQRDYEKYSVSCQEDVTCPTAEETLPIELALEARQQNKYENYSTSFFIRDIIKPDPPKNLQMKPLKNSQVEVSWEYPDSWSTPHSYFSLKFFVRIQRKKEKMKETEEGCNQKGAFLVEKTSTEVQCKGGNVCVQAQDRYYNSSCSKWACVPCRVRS
Sequence of mouse IL-12 (p40/p35 heterodimer) (mouse) (P43431 23-215, chain 2 of 2, further chain): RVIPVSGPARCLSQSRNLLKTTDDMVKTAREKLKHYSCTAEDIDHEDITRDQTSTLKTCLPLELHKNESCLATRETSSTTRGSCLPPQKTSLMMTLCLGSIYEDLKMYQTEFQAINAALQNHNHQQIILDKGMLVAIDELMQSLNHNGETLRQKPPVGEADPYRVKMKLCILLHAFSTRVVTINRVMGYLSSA

## C17.8 (rat anti-mouse IL-12/IL-23p40, IgG2a) (antibody)
  in vitro neutralization of IL-12 (times (against the anti-p35 mAb)): 5
